Results taken from IntAct's records for PubMed 25772236.

B1: E1B 55 kDa protein (Human adenovirus C serotype 5 (HAdV-5)), P03243-1 (parent)
chain: MERRNPSERGVPAGFSGHASVESGCETQESPATVVFRPPGDNTDGGAAAAAGGSQAAAAGAEPMEPESRPGPSGMNVVQVAELYPELRRILTITEDGQGLKGVKRERGACEATEEARNLAFSLMTRHRPECITFQQIKDNCANELDLLAQKYSIEQLTTYWLQPGDDFEEAIRVYAKVALRPDCKYKISKLVNIRNCCYISGNGAEVEIDTEDRVAFRCSMINMWPGVLGMDGVVIMNVRFTGPNFSGTVFLANTNLILHGVSFYGFNNTCVEAWTDVRVRGCAFYCCWKGVVCRPKSRASIKKCLFERCTLGILSEGNSRVRHNVASDCGCFMLVKSVAVIKHNMVCGNCEDRASQMLTCSDGNCHLLKTIHVASHSRKAWPVFEHNILTRCSLHLGNRRGVFLPYQCNLSHTKILLEPESMSKVNLNGVFDMTMKIWKVLRYDETRTRCRPCECGGKHIRNQPVMLDVTEELRPDHLVLACTRAEFGSSDEDTD
partner: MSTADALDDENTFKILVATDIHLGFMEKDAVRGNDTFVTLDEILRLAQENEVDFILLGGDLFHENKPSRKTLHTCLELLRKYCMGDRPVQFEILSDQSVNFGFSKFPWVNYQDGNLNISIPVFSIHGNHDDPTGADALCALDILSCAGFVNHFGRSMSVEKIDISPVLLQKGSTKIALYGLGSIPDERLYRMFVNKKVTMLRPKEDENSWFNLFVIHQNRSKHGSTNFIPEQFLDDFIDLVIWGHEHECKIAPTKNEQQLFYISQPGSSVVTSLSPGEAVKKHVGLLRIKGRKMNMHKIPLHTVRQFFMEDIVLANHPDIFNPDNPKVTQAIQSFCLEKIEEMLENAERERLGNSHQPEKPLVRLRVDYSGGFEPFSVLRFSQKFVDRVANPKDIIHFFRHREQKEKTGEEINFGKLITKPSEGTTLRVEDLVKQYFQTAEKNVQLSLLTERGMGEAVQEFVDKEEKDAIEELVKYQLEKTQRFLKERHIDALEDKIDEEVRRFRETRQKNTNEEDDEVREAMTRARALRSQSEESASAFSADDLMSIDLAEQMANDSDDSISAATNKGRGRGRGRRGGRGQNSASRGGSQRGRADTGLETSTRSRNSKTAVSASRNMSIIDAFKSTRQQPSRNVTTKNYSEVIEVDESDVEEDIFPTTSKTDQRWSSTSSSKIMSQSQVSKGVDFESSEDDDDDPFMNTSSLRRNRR
B2: E1B 55 kDa protein (Human adenovirus C serotype 5 (HAdV-5)), P03243-1 (parent)
chain: B1 chain

Variants of: B1
Settings: with mre11_human MRE11, P49959
K104R was tested, and the “effect of a mutation on the interaction” value was “decreasing interaction strength”.

Variants of: B2
Settings: with PML
With K104R the “effect of a mutation on the interaction” value was “decreasing interaction strength”.
R443A was tested, and the “effect of a mutation on the interaction” value was “decreasing interaction strength”.

Variants of: B2
Settings: with DAXX
In the case of R443A, the “effect of a mutation on the interaction” value is reported as “decreasing interaction strength”.

Variants of: B2
Settings: with PML
Remark: another data set of the same source
For R448A;T449A;R450A, the “effect of a mutation on the interaction” value was “disrupting interaction strength”.
